Earlier results, collected in publication PMC8006918.
Read-outs that look alike come from different tables or passages of the source.

Assays:
[1] = target: Tenascin-C (Homo sapiens) (UniProt P24821)
[2] = target: Tenascin-C (Homo sapiens) (UniProt P24821); remark: listed apart in the source
[3] = target: Tenascin-C (Homo sapiens) (UniProt P24821); remark: listed apart in the source

Chain of Tenascin-C (Homo sapiens) (P24821 23-2201): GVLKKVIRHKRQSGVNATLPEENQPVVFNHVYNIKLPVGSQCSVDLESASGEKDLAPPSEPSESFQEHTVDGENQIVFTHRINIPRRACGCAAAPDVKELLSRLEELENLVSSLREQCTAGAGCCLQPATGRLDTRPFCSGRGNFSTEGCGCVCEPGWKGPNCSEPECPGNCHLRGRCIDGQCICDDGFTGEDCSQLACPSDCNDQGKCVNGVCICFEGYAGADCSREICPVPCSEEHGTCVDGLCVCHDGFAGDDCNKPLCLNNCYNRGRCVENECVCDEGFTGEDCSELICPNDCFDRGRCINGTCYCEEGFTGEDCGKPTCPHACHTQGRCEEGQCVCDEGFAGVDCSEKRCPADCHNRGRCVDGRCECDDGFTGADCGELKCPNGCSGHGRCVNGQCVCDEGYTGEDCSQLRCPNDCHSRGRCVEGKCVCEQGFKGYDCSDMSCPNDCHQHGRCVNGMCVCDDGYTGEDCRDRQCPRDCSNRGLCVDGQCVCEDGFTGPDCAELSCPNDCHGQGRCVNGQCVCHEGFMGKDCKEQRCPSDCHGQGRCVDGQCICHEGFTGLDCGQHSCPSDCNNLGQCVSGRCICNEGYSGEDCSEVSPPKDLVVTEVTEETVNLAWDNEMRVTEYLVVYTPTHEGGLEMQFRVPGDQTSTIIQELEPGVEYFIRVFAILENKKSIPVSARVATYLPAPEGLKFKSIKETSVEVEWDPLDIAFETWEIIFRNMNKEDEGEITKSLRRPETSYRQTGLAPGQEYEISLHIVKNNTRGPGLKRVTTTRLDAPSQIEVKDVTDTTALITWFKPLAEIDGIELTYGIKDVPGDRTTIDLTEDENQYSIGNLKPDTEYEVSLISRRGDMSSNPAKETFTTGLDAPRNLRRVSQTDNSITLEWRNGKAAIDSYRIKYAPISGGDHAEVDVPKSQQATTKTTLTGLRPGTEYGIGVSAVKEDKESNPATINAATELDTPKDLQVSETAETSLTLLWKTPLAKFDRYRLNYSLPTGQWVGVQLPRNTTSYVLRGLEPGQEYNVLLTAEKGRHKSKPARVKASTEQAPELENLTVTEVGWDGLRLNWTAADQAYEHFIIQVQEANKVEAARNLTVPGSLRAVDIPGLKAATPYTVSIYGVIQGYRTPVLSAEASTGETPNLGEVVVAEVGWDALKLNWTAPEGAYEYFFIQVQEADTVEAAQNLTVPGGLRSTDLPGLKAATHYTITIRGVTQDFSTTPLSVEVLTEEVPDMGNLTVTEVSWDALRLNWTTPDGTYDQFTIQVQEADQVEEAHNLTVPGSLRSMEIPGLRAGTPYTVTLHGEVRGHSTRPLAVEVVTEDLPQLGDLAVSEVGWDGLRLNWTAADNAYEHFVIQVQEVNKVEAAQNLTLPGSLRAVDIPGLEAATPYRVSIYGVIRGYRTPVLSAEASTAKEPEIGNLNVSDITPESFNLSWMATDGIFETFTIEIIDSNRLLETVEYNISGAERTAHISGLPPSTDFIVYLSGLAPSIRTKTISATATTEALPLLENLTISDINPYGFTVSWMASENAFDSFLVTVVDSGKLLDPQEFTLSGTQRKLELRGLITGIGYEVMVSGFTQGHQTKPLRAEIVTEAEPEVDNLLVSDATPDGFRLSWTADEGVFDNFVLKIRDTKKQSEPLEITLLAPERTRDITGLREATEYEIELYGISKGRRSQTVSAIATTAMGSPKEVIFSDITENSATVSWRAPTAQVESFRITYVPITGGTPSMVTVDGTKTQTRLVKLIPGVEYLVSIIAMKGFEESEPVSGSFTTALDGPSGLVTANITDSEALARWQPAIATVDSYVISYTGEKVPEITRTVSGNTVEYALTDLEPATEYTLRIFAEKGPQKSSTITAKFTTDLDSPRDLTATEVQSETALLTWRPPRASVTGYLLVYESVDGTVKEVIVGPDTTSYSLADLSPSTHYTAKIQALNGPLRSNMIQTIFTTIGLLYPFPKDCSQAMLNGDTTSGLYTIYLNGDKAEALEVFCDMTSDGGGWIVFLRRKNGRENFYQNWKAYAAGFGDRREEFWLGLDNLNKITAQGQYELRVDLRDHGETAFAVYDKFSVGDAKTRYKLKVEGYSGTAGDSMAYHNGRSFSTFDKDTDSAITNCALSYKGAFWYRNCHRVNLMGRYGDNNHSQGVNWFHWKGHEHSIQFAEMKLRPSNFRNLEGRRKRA
Chain of CCL21 (O00585 24-134): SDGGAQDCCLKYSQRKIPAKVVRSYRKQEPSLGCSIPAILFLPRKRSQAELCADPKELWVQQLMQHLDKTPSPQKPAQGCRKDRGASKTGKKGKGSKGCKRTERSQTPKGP
Chain of TGF-β1 (P01137 279-390): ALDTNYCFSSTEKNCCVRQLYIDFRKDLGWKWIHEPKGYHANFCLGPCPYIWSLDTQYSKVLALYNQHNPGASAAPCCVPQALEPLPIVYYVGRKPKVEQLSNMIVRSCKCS
Chain of Fibronectin FN III13 (P02751 1904-1992): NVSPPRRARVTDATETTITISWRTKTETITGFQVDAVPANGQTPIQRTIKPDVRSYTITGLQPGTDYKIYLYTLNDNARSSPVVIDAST

Which Kd [1] does the source give for CCL21 (from UniProt O00585) here?
The Kd was 58 nM.

Which Kd [2] does the source give for “Fibronectin FN III13 (from UniProt P02751)” here?
The Kd was 128 nM.

Which Kd [3] does the source give for TGF-β1 (from UniProt P01137) here?
The Kd was 20.3 nM.
